Measurements published in IntAct's records for PubMed 25122212.

B1: Envelope small membrane protein (Human SARS coronavirus), P59637 (parent)
chain: MYSFVSEETGTLIVNSVLLFLAFVVFLLVTLAILTALRLCAYCCNIVNVSLVKPTVYVYSRVKNLNSSEGVPDLLV

Variants of: B1
Settings: with SDCBP

Question: E69A;V71A;D73A;L75A was tested. Which “effect of a mutation on the interaction” value did it give?
Answer: with no effect

Variants of: B1
Settings: with SDCBP
Remark: another data set of the same source

Question: With D73G;L74G;L75G;V76G as the variant, how does the “effect of a mutation on the interaction” value read?
Answer: decreasing interaction strength
